We go through one substance from article PMC4253602 (Molecular oncology, 2014).

Holding throughout (experiment): SPR
Assay [1] concerns the target C320-HY (biotinylated peptide).
The target in assay [2] is C320-WY (biotinylated peptide).
For assay [3], the target named is C320-LY (Biotin-C320).
The target of assay [4] is ARN20-HY (biotinylated peptide) (human).
The target of assay [5] is ARN20-WY (biotinylated peptide) (human).
In assay [6] the target is ARN20-FY (biotinylated peptide) (human).
The target of assay [7] is C320-YY (biotinylated peptide).
In assay [8] the target is ARN20-LY (biotinylated peptide) (human).

Turning to “wild-type AR-DBD-LBD (domain or fragment)”, the Kd came out at 38 µM in assay [1]; 0.14 µM in assay [2]; 0.03 µM in assay [3]; 140 µM in assay [4]; 0.5 µM in assay [5]; 0.038 µM in assay [6]. Moreover, the Kd in assay [7] worked out at 3.8 µM; in assay [8], 0.1 µM.

As a reminder, the Kd is the constant that tells how readily two partners part at equilibrium. Low values mean a tighter complex, high ones a looser complex.
